Like-named read-outs stand apart in the source and are kept apart here.
Key:
[1] = target: T1, SARS-CoV-2 S1 (antigen of the Carterra SPR kinetics) (SARS-CoV-2, UniProt P0DTC2 16-685); assay: Carterra SPR
[2] = target: T1, SARS-CoV-2 S1 (antigen of the Carterra …); assay: Carterra SPR; remark: listed apart in the source
S1-Fc [3] = target: T2, S1-Fc (SARS-CoV-2, UniProt P0DTC2 16-685); assay: phage ELISA
[4] = target: T3, COVID S1 RBM Fc fusion (Antigen 2) (SARS-CoV-2, UniProt P0DTC2 437-508); assay: phage ELISA
T3 construct: domain: RBM

S1-Fc [5] = target: T2, S1-Fc; assay: phage ELISA; remark: listed apart in the source
[6] = target: T3, COVID S1 RBM Fc fusion (Antigen 2); assay: phage ELISA; remark: listed apart in the source
[7] = target: T4, SARS-CoV-2 Spike Glycoprotein S1 (subunit 1) (SARS-CoV-2, UniProt P0DTC2 16-685); assay: screening phage ELISA, mean
T4 construct: also called S1 Monomer; SARS-CoV-2 S1

[8] = target: T4, SARS-CoV-2 Spike Glycoprotein S1 …; assay: screening phage ELISA, mean; remark: listed apart in the source

B1: 1-2 (antibody, V domains shown)
VH: EVQLLESGGGLVQPGGSLRLSCAASGFTFSSQAMSWVRQAPGKGLEWVSAISGSGGGTYYADSVKGRFTISRDNSKNTLYLQMNSLRAEDTAVYYCAKDRRFGEFDPWGQGTLVTVSS
VL: QSALTQPASVSGSPGQSITISCTGTSSGVGSYNLVSWYQQHPGKAPKLMIYEGIKRPSGVSNRFSGSKSGNTASLTISGLQAEDEADYYCCSYAGSSSFVVFGGGTKLTVL
notes: also called variant 1-2
[1]
  koff: 0.0272 s⁻¹
  kon: 1580 M⁻¹ s⁻¹
[2]
  Kd: 17200 nM
  koff: 0.0272 s⁻¹
  kon: 1580 M⁻¹ s⁻¹
S1-Fc [3]
  ELISA fold over background: 1.7 fold over background
[4]
  ELISA fold over background: 1.7 fold over background
S1-Fc [5]
  ELISA fold over background: 1.7 fold over background
[6]
  ELISA fold over background: 1.7 fold over background

B2: 1-3 (antibody, V domains shown)
VH: EVQLLESGGGLVQPGGSLRLSCAASGFTFSSQAMSWVRQAPGKGLEWVSAISGSGGGTYYADSVKGRFTISRDNSKNTLYLQMNSLRAEDTAVYYCAKDRRFGEFDPWGQGTLVTVSS
VL: QSALTQPASVSGSPGQSITISCTGISSDVGSYNLVSWYQQHPGKAPKLMIYEGTKRPSGVSNRFSGSKSGNTASLTISGLQAEDEADYYCCSYAGSSSFVVFGGGTKLTVL
notes: also called variant 1-3
[1]
  koff: 0.304 s⁻¹
  kon: 1.42e+06 M⁻¹ s⁻¹
[2]
  Kd: 215 nM
  koff: 0.304 s⁻¹
  kon: 1.42e+06 M⁻¹ s⁻¹
S1-Fc [3]
  ELISA fold over background: 1.5 fold over background
[4]
  ELISA fold over background: 1.5 fold over background
S1-Fc [5]
  ELISA fold over background: 1.5 fold over background
[6]
  ELISA fold over background: 1.5 fold over background

B3: 1-4 (antibody, V domains shown)
VH: EVQLLESGGGLVQPGGSLRLSCAASGFTFSSQAMSWVRQAPGKGLEWVSAISGSGGGTYYADSVKGRFTISRDNSKNTLYLQMNSLRAEDTAVYYCAKDRRFGEFDPWGQGTLVTVSS
VL: QSALTQPASVSGSPGQSITISCTGTSSDVGTYNLVSWYQQHPGKAPKLMIYEGSQRPSGVSNRFSGSKSGNTASLTISGLQAEDEADYYCCSYAGSSSFVVFGGGTKLTVL
notes: also called variant 1-4
[1]
  koff: 0.124 s⁻¹
  kon: 42000 M⁻¹ s⁻¹
[2]
  Kd: 2950 nM
  koff: 0.124 s⁻¹
  kon: 42000 M⁻¹ s⁻¹
S1-Fc [3]
  ELISA fold over background: 0.9 fold over background
[4]
  ELISA fold over background: 1.1 fold over background
S1-Fc [5]
  ELISA fold over background: 0.9 fold over background
[6]
  ELISA fold over background: 1.1 fold over background

B4: 1-5 (antibody, V domains shown)
VH: EVQLLESGGGLVQPGGSLRLSCAASGFTFSSQAMSWVRQAPGKGLEWVSAISGSGGGTYYADSVKGRFTISRDNSKNTLYLQMNSLRAEDTAVYYCAKDRRFGEFDPWGQGTLVTVSS
VL: QSALTQPASVSGSPGQSITISCTGTSSGVGSYNLVSWYQQHPGKAPKLMIYEASKRPSGVSNRFSGSKSGNTASLTISGLQAEDEADYYCCSYAGSYTFAVFGGGTKLTVL
notes: also called variant 1-5
[1]
  koff: 0.054 s⁻¹
  kon: 2150 M⁻¹ s⁻¹
[2]
  Kd: 25200 nM
  koff: 0.054 s⁻¹
  kon: 2150 M⁻¹ s⁻¹
S1-Fc [3]
  ELISA fold over background: 1.2 fold over background
[4]
  ELISA fold over background: 1.4 fold over background
S1-Fc [5]
  ELISA fold over background: 1.2 fold over background
[6]
  ELISA fold over background: 1.4 fold over background

B5: 1-29 (antibody, V domains shown)
VH: EVQLLESGGGLVQPGGSLRLSCAASGFTFSSYAMYWVRQAPGKGLEWVSAISGSAGSTYYADSVKGRFTISRDNSKNTLYLQMNSLRAEDTAVYYCARDTNDFWSGYSIFDPWGQGTLVTVSS
VL: QSALTQPASVSGSPGQSITISCTGTSSDIGSYNLVSWYQQHPGKAPKLMIYEGTKRPSGVSNRFSGSKSGNTASLTISGLQAEDEADYYCCSYAGSRTYVFGGGTKLTVL
notes: also called variant 1-29
[1]
  koff: 0.00197 s⁻¹
  kon: 535 M⁻¹ s⁻¹
[2]
  Kd: 3680 nM
  koff: 0.00197 s⁻¹
  kon: 535 M⁻¹ s⁻¹
S1-Fc [3]
  ELISA fold over background: 1 fold over background
[4]
  ELISA fold over background: 0.9 fold over background
S1-Fc [5]
  ELISA fold over background: 1 fold over background
[6]
  ELISA fold over background: 0.9 fold over background

B6: 1-48 (antibody, V domains shown)
VH: EVQLLESGGGLVQPGGSLRLSCAASGFTFSSHAMYWVRQAPGKGLEWVSAISGSAGSTYYADSVKGRFTISRDNSKNTLYLQMNSLRAEDTAVYYCAHDTKDFWSGYCIFDPWGQGTLVTVSS
VL: QSALTQPASVSGSPGQSITISCTGTSSDIGSYNLVSWYQQHPGKAPKLMIYEGTKRPSGVSNRFSGSKSGNTASLTISGLQAEDEADYYCCSYAGSRTYVFGGGTKLTVL
notes: also called variant 1-48
[4]
  ELISA fold over background: 0.8 fold over background
[6]
  ELISA fold over background: 0.8 fold over background

B7: 1-12 (antibody, V domains shown)
VH: EVQLLESGGGLVQPGGSLRLSCAASGITFSSYAMSWVRQAPGKGLEWVSGISGSGGSTYYADSVKGRFTISRDNSKNTLYLQMNSLRAEDTAVYYCAKHGSGTIFGVVIAKYYFDYWGQGTLVTVSS
VL: QSALTQPASVSGSPGQSITISCTGTSSDVGHYNLVSWYQQHPGKAPKLMIYEGTKRPSGVSNRFSGSKSGNTASLTISGLQAEDEADYYCCSYAGSSSFVVFGGGTKLTVL
notes: also called variant 1-12
[2]
  Kd: 372 nM

B8: 1-20 (antibody, V domains shown)
VH: EVQLLESGGGLVQPGGSLRLSCAASGITFSSYAMSWVRQAPGKGLEWVSGISGSGGSTYYADSVKGRFTISRDNSKNTLYLQMNSLRAEDTAVYYCANHGSGTIFGVVIAKYYFDYWGQGTLVTVSS
VL: QSALTQPASVSGSPGQSITISCTGTSSDVGHYNLVSWYQQHPGKAPKLMIYEGTKRPSGVSNRFSGSKSGNTASLTISGLQAEDEADYYCCSYAGSSSFVVFGGGTKLTVL
notes: also called variant 1-20
[4]
  ELISA fold over background: 0.8 fold over background
[6]
  ELISA fold over background: 0.8 fold over background

B9: 1-23 (antibody, V domains shown)
VH: EVQLLESGGGLVQPGGSLRLSCAASGFTFSSYAISWVRQAPGKGLEWVSIISGSGGSTYYADSVKGRFTISRDNSKNTLYLQMNSLRAEDTAVYYCAREGYRDYLWYFDLWGQGTLVTVSS
VL: QSALTQPASVSGSPGQSITISCTGTSNDVGSYNLVSWYQQHPGKAPKLMIYEGNKRPSGVSNRFSGSKSGNTASLTISGLQAEDEADYYCCSYAGSYTVFGGGTKLTVL
[7]
  ELISA (Avg): 23.1
[8]
  ELISA (Avg): 23.1

B10: 1-31 (antibody, V domains shown)
VH: EVQLLESGGGLVQPGGSLRLSCAASGFTFSSYAMNWVRQAPGKGLEWVSAISGSGGSTFYADSVKGRFTISRDNSKNTLYLQMNSLRAEDTAVYYCTRPPYGDYGDYWGQGTLVTVSS
VL: QSALTQPASVSGSPGQSITISCTGTSSDVGKYNLVSWYQQHPGKAPKLMIYEGSQRPSGVSNRFSGSKSGNTASLTISGLQAEDEADYYCCSYAGSRTPVVFGGGTKLTVL
notes: also called variant 1-31
[1]
  koff: 0.000762 s⁻¹
  kon: 20500 M⁻¹ s⁻¹
[2]
  Kd: 37.2 nM
  koff: 0.000762 s⁻¹
  kon: 20500 M⁻¹ s⁻¹
S1-Fc [3]
  ELISA fold over background: 15.7 fold over background
[4]
  ELISA fold over background: 1.2 fold over background
S1-Fc [5]
  ELISA fold over background: 15.7 fold over background
[6]
  ELISA fold over background: 1.2 fold over background

B11: 1-30 (antibody, V domains shown)
VH: EVQLLESGGGLVQPGGSLRLSCAASGFTFSSYAMTWVRQAPGKGLEWVSAISGSGGSTFYADSVKGRFTISRDNSKNTLYLQMNSLRAEDTAVYYCTRPPYGDYGDYWGQGTLVTVSS
VL: QSALTQPASVSGSPGQSITISCTGTSRDVGSYNLVSWYQQHPGKAPKLMIYEGTKRPSGVSNRFSGSKSGNTASLTISGLQAEDEADYYCCSYAGSRTPVVFGGGTKLTVL
notes: also called variant 1-30
[1]
  koff: 0.00164 s⁻¹
  kon: 43900 M⁻¹ s⁻¹
[2]
  Kd: 37.2 nM
  koff: 0.00164 s⁻¹
  kon: 43900 M⁻¹ s⁻¹
S1-Fc [3]
  ELISA fold over background: 5.6 fold over background
[4]
  ELISA fold over background: 1.4 fold over background
S1-Fc [5]
  ELISA fold over background: 5.6 fold over background
[6]
  ELISA fold over background: 1.4 fold over background

B12: 1-27 (antibody, V domains shown)
VH: EVQLLESGGGLVQPGGSLRLSCAASGFTFSSYAMTWVRQAPGKGLEWVSAISGSGGGTYYADSVKGRFTISRDNSKNTLYLQMNSLRAEDTAVYYCASSSSWQFDYWGQGTLVTVSS
VL: QSALTQPASVSGSPGQSITISCTGTSSYVGHYNLVSWYQQHPGKAPKLMIYEGSRRPSGVSNRFSGSKSGNTASLTISGLQAEDEADYYCCSYAGSYTHYVFGGGTKLTVL
notes: also called variant 1-27
[1]
  koff: 0.00285 s⁻¹
  kon: 227000 M⁻¹ s⁻¹
[2]
  Kd: 12.5 nM
  koff: 0.00285 s⁻¹
  kon: 227000 M⁻¹ s⁻¹
S1-Fc [3]
  ELISA fold over background: 1.3 fold over background
[4]
  ELISA fold over background: 1.6 fold over background
S1-Fc [5]
  ELISA fold over background: 1.3 fold over background
[6]
  ELISA fold over background: 1.6 fold over background

B13: 1-28 (antibody, V domains shown)
VH: EVQLLESGGGLVQPGGSLRLSCAASGFTFSSYGMSWVRQAPGKGLEWVSAISGSGGGTYYADSVKGRFTISRDNSKNTLYLQMNSLRAEDTAVYYCASSSSWQFDYWGQGTLVTVSS
VL: QSALTQPASVSGSPGQSITISCTGTSSGVGSYNLVSWYQQHPGKAPKLMIYEGSQRPSGVSNRFSGSKSGNTASLTISGLQAEDEADYYCCSYAGSSTHYVFGGGTKLTVL
notes: also called variant 1-28
[1]
  koff: 9.05 s⁻¹
  kon: 1.23e+08 M⁻¹ s⁻¹
[2]
  Kd: 73.5 nM
  koff: 9.05 s⁻¹
  kon: 1.23e+08 M⁻¹ s⁻¹
S1-Fc [3]
  ELISA fold over background: 1.1 fold over background
[4]
  ELISA fold over background: 1.2 fold over background
S1-Fc [5]
  ELISA fold over background: 1.1 fold over background
[6]
  ELISA fold over background: 1.2 fold over background

B14: 1-35 (antibody, V domains shown)
VH: EVQLLESGGGLVQPGGSLRLSCAASGFTFSNYAMSWVRQAPGKGLEWVSDISGSGGSTYYADSVKGRFTISRDNSKNTLYLQMNSLRAEDTAVYYCVKGTIPIFGVIRSAFDYWGQGTLVTVSS
VL: QSALTQPASVSGSPGQSITISCTGTSSDVGSYSLVSWYQQHPGKAPKLMIYEGTKRPSGVSNRFSGSKSGNTASLTISGLQAEDEADYYCCSYAGSYSYVVFGGGTKLTVL
notes: also called variant 1-35
[4]
  ELISA fold over background: 1.6 fold over background
[6]
  ELISA fold over background: 1.6 fold over background

B15: 1-49 (antibody, V domains shown)
VH: EVQLLESGGGLVQPGGSLRLSCAASGFTFSSYAMYWVRQAPGKGLEWVSAISGSAGSTYYADSVKGRFTISRDNSKNTLYLQMNSLRAEDTAVYYCARDTNDFWGQGTLVTVSS
VL: QSALTQPASVSGSPGQSITISCTGTSSDIGSYNLVSWYQQHPGKAPKLMIYEGTKRPSGVSNRFSGSKSGNTASLTISGLQAEDEADYYCCSYAGSRTYVFGGGTKLTVL
notes: also called variant 1-49
[4]
  ELISA fold over background: 0.8 fold over background
[6]
  ELISA fold over background: 0.8 fold over background

From patent US20210395344A1 (TWIST BIOSCIENCE, published 2021)
